Source: patent EP1287147B1

Columns and labels:
[1] = biological target: human CD3 (CD3 epsilon of the T-cell receptor complex) on Jurkat cells (human) (UniProt P07766); assay: cell-based or functional assay
[2] = biological target: human CD3 (CD3 epsilon of the T-cell receptor complex) on Jurkat cells (human) (UniProt P07766); assay: competition with 125I-UCHT1 tracer on Jurkat cells; competitor at 100 nM
[3] = biological target: human CD3 (CD3 epsilon of the T-cell receptor complex) on Jurkat cells (human) (UniProt P07766); assay: competition with 125I-UCHT1 tracer on Jurkat cells; competitor at 1 nM

| Substance | ratio of IC50 of sFv-DT390 to IC50 of UCHT1-CRM9 [1] | % of 125I-UCHT1 tracer bound (% of tracer bound without competitor) [2] | % of 125I-UCHT1 tracer bound (% of tracer bound without competitor) [3] |
| --- | --- | --- | --- |
| sFv-DT390 (DT390-sFv(UCHT1'), anti-CD3 single-chain immunotoxin with truncated diphtheria toxin) | 16 fold | – | – |
| UCHT1 monoclonal antibody (murine anti-human CD3, IgG1) | – | 0 | 80 |
| scUCHT1 (divalent chimeric anti-human CD3 single chain antibody, UCHT1 VL-linker-VH fused to human IgM Fc CH2-CH4) (Fc fusion) | – | 0 | 80 |
